Test results reported in PMC2858264.

What was measured:
Assay in all cases: purified protein
purified protein [1] = substrate: CC(=O)CSCCS(=O)(=O)O; details: reduction, 0.17 mM NADH, pH 7.5, 30 °C
purified protein [2] = substrate: C[C@@H](O)CSCCS(=O)(=O)O; details: oxidation, 10 mM NAD+, pH 7.5, 30 °C
purified protein [3] = substrate: C[C@H](O)CSCCS(=O)(=O)O; details: oxidation, 10 mM NAD+, pH 7.5, 30 °C
purified protein [4] = substrate: CC(=O)CSCCS(=O)(=O)O; format: biochemical, Xanthobacter versatilis; details: reduction, 0.17 mM NADH, pH 7.5, 30 °C
purified protein [5] = substrate: C[C@@H](O)CSCCS(=O)(=O)O; format: biochemical, Xanthobacter versatilis; details: oxidation, 10 mM NAD+, pH 7.5, 30 °C
purified protein [6] = substrate: C[C@H](O)CSCCS(=O)(=O)O; format: biochemical, Xanthobacter versatilis; details: oxidation, 10 mM NAD+, pH 7.5, 30 °C
purified protein [7] = substrate: O=S(=O)(O)CCSCCO; format: biochemical, Xanthobacter versatilis; details: oxidation, 5 mM NAD+, pH 7.5, 30 °C

B1: rS-HPCDH1 (Xanthobacter versatilis) (protein)
chain: MLDAEVIAITGGAAGIGLAVAHAAIRAGARVALIDRDGACAQRAAAEFGAAAWGVGADVTDEAAITAAMAGAQRALGPLTGLVNNAGIAGFGSVHATEVETWSRIMAVNVTGTFLASKAALFGMLERGRGAIVNFGSVAGLVGIPTMAAYCAAKGAVVNLTRQMAADYSGRGIRVNVVCPGTVAGTDMGRQLLGTDCDPELEARRLAKYPMGRFGTPEDIAEAAVFLLSTKAAFVTGSVLAVDGGMTAI
Purified protein [1]
  Km: 240 ± 10 µM
  kcat: 20 s⁻¹
  kcat/Km: 83000 M⁻¹ s⁻¹
Purified protein [2]
  Km: 5200 ± 300 µM
  kcat: 2.4 s⁻¹
  kcat/Km: 460 M⁻¹ s⁻¹
Purified protein [3]
  Km: 220 ± 20 µM
  kcat: 28 s⁻¹
  kcat/Km: 130000 M⁻¹ s⁻¹

B2: rR-HPCDH1 (Xanthobacter versatilis) (protein)
chain: SRVAIVTGASSGNGLAIATRFLARGDRVAALDLSAETLEETARTHWHAYADKVLRVRADVADEGDVNAAIAATMEQFGAIDVLVNNAGITGNSEAGVLHTTPVEQFDKVMAVNVRGIFLGCRAVLPHMLLQGAGVIVNIASVASLVAFPGRSAYTTSKGAVLQLTKSVAVDYAGSGIRCNAVCPGMIETPMTQWRLDQPELRDQVLARIPQKEIGTAAQVADAVMFLAGEDATYVNGAALVMDGAYTAI
Purified protein [4]
  Km: 68 ± 10 µM
Purified protein [5]
  Km: 96 ± 7 µM
  kcat: 48 ± 1 s⁻¹
  kcat/Km: 500000 M⁻¹ s⁻¹
Purified protein [6]
  Km: 220 ± 70 µM
  kcat: 0.12 ± 0.01 s⁻¹
  kcat/Km: 530 M⁻¹ s⁻¹
Purified protein [7]
  Km: 960 ± 100 µM
